Values belong to the binder of their own block, whether it stands above or below them.
Columns and labels:
GFP-TRB2 (Arabidopsis) = GFP-TRB2 (Arabidopsis) (UniProt Q9FJW5); assay: FRET or BRET; FRET-FLIM (TCSPC); GFP fusion as donor, RFP fusion as acceptor, co-expressed in plant cells; donor alone as control; 10 images a series
GFP-TRB1 (Arabidopsis) = GFP-TRB1 (Arabidopsis) (UniProt Q8VWK4); assay: as above
UniProt Q8VWK4, sequence (Q8VWK4 whole entry): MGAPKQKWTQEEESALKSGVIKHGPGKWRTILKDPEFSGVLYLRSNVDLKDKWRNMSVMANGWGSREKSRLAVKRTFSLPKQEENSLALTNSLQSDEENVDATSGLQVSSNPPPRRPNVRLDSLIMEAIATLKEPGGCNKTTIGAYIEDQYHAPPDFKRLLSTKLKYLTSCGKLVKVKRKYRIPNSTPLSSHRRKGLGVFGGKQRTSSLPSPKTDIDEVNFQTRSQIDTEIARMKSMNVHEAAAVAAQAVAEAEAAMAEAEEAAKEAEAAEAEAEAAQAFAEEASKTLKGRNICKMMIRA

UniProt Q9FJW5, sequence (Q9FJW5 whole entry, the tested form may be a part): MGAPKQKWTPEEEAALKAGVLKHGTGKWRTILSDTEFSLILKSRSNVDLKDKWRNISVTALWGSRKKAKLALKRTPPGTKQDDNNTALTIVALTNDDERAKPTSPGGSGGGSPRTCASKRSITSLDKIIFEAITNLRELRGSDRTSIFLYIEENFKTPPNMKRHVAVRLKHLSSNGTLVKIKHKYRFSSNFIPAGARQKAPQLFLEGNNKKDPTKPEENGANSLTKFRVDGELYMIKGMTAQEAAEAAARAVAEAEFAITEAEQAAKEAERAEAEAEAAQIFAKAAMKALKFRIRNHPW

fluorescence lifetime of the GFP donor in the presence of the RFP acceptor (GFP-TRB2 (Arabidopsis)): 2.21 ns
fluorescence lifetime of the GFP donor in the presence of the RFP acceptor (GFP-TRB1 (Arabidopsis)): 2.31 ns
B1: RFP-VAP27-1 (natural protein)
chain: MSNIDLIGMSNRDLIGMSNSELLTVEPLDLQFPFELKKQISCSLYLTNKTDNNVAFKVKTTNPKKYCVRPNTGVVLPRSTCEVLVTMQAQKEAPSDMQCKDKFLLQGVIASPGVTAKEVTPEMFSKEAGHRVEETKLRVTYVAPPRPPSPVHEGSEEGSSPRASVSDNGHGSEFSFERFIVDNKAGHQENTSEARALITKLTEEKQSAIQLNNRLQRELDQLRRESKKSQSGGIPFMYVLLVGLIGLILGYIMKRT

fluorescence lifetime of the GFP donor in the presence of the RFP acceptor (GFP-TRB1 (Arabidopsis)): 2.3 ns
B2: RFP-ATG8e (natural protein)
chain: MNKGSIFKMDNDFEKRKAEAGRIREKYPDRIPVIVEKAEKSEVPNIDKKKYLVPSDLTVGQFVYVIRKRIKLSAEKAIFIFVDNVLPPTGELMSSVYEDKKDEDGFLYITYSGENTFG
